The series deals with the molecule itself. The experiment in a line: cryo-EM structure.

B1: human DNA polymerase theta helicase domain (Polθ-HLD), residues 67-940 (domain or fragment, UniProt O75417 67-940, looked up)
chain: DKLLLANWGLPKAVLEKYHSFGVKKMFEWQAECLLLGQVLEGKNLVYSAPTSAGKTLVAELLILKRVLEMRKKALFILPFVSVAKEKKYYLQSLFQEVGIKVDGYMGSTSPSRHFSSLDIAVCTIERANGLINRLIEENKMDLLGMVVVDELHMLGDSHRGYLLELLLTKICYITRKSASCQADLASSLSNAVQIVGMSATLPNLELVASWLNAELYHTDFRPVPLLESVKVGNSIYDSSMKLVREFEPMLQVKGDEDHVVSLCYETICDNHSVLLFCPSKKWCEKLADIIAREFYNLHHQAEGLVKPSECPPVILEQKELLEVMDQLRRLPSGLDSVLQKTVPWGVAFHHAGLTFEERDIIEGAFRQGLIRVLAATSTLSSGVNLPARRVIIRTPIFGGRPLDILTYKQMVGRAGRKGVDTVGESILICKNSEKSKGIALLQGSLKPVRSCLQRREGEEVTGSMIRAILEIIVGGVASTSQDMHTYAACTFLAASMKEGKQGIQRNQESVQLGAIEACVMWLLENEFIQSTEASDGTEGKVYHPTHLGSATLSSSLSPADTLDIFADLQRAMKGFVLENDLHILYLVTPMFEDWTTIDWYRFFCLWEKLPTSMKRVAELVGVEEGFLARCVKGKVVARTERQHRQMAIHKRFFTSLVLLDLISEVPLREINQKYGCNRGQIQSLQQSAAVYAGMITVFSNRLGWHNMELLLSQFQKRLTFGIQRELCDLVRVSLLNAQRARVLYASGFHTVADLARANIVEVEVILKNAVPFKSARKAVDEEEEAVEERRNMRTIWVTGRKGLTEREAAALIVEEARMILQQDLVEMGVQWNPCALLHSSTCSLTHSESEVKEHTFISQTKSSYKKLTSKNKS
What is called stoichiometry N is a count of units in the complex or per binding partner. For the protein B1, the “stoichiometry N” value is 2.
